Assay results taken from patent CN112142841A (JIANGSU QUANXIN BIOMEDICAL CO LTD, dated 2020).

How the values were obtained:
[1] = target: T1, 人IL-17A (His-tag，购自Novoprotein) (human, UniProt Q16552 24-155); assay: ELISA: antibody coated, serially diluted His-tagged human IL-17A, anti-His-HRP detection
T1 construct: Bought His-tagged protein, detected with an HRP-labelled anti-His antibody; also called human IL-17A; hIL-17A; not shown: His-tag
T1 sequence (looked up): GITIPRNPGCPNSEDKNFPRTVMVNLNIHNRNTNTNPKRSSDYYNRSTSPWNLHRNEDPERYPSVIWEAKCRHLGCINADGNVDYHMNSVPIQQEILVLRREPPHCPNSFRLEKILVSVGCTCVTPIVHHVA

[2] = target: T2, 人IL-17A蛋白 (Example 4, sandwich ELISA) (human, UniProt Q16552 24-155); assay: sandwich ELISA: QX002N coated, human IL-17A 0-10 ng/ml, biotin-labelled second antibody for detection, SA-HRP
T2 construct: also called 重组人IL-17A蛋白标准品; recombinant human IL-17A protein standard
T2 sequence (looked up): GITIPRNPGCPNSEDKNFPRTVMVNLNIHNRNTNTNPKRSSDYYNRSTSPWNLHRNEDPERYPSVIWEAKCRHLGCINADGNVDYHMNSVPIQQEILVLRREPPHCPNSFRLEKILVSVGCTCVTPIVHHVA

binding result [1]: binds | binding result [2]: binds
B1: 抗人IL-17A单克隆抗体 (anti-human IL-17A monoclonal antibody) (antibody, V domains shown)
VH: QSLEESGGDLVQPEGSLALTCKASGFDLSSYYYMCWVRQAPGKGLEWIACIHTGNGYPYYANWAKGRFTISKTSSTTVTLQLTSLTVADTATYFCARPVGGYDYAMDLWGPGTLVTVSS
VL: AYDMTQTPASVSAAVGGTVTINCQASEDISSQLSWYQQRPGQPPKLLIYKASTLASGVPSRFRGSGSGTQFTLTISGVQCADAATYYCQQSASYFNVANTFGGGTEVVVKG
notes: also called 第二抗体; 检测抗体
